Publication PMC5020499, “Crystal structures of archaeal 2-oxoacid:ferredoxin oxidoreductases from Sulfolobus tokodaii” (Scientific Reports, 2016)

Key:
purified protein [1] = substrate: CC(=O)C(=O)O; test: purified protein; format: biochemical, Sulfurisphaera tokodaii; details: 0.25 mM CoA, 2 mM methylviologen, 50 mM Tris-HCl pH 8.5, 80 °C
purified protein [2] = substrate: O=C(O)CCC(=O)C(=O)O; test: purified protein; format: biochemical, Sulfurisphaera tokodaii; details: 0.25 mM CoA, 2 mM methylviologen, 50 mM Tris-HCl pH 8.5, 80 °C

B1: StOFOR2 (Sulfurisphaera tokodaii str. 7) (protein)
chain 1: MTRIVWMIGGAQGLGVDTSANIFGNAVAKAGYYLFGNREYYSNIKGRHSYFEVVISEKPIRSLSSYVNILASFDAETVFQHFTETKEYLIYNVEYENTTVDLVKSMEPEMAEQVKEALSKERLGFTIKDVLEYLKRRGVKVIGFNYTELIKKIADTFKVPMSVVERAKNMIAVGASYGLLGLKFDYLKDAISSTFKNELFIKFNTMAAELGYNSVPNVYKLQEYKIEKQRIQVDGNTISAMGKLAGGLRFQSYYPITPASDESVYIEANQNLDMIVEGNELRKGGVVVVQAEDELAAINMAVGAALTGVRSATATSGPGFSLMSEGISWAGMNEVPVVITYYMRGAPATGLPTRSGQADLKFALNVGHGEFPRIVIASGDHVEIFWDAIWALNLAEKYQTPVIHIIEKTLANAYSVFEEELITNRPYVIERGKIVKPTSDYFNRFEVTEDGISPRVFLGQASIFYTGDEHNEEGHITENSINRMKMYEKRNKKLETADKEIPEEQRVNIVGDADIVLLTWGSPKGAILDAMEELSKDGIKTMMVQVKMFNPYPKNLMKKILSGKSKIIAVENNYNAQGAEVLAEKTGIFATNYILKWTGRPITREEVIEGIKKILERDEKRVVLYGGA
chain 2: MVERKPVFVDWCPGCGDFGILRAEEMAIRELGINPKSVVIVSGIGCSGKIPHFMNLPISGVHTLHGRSIAFATGIKLSNPSLEVIVNVGDGDGLGIGMGHFVHLGRRNIDIAVLVHNNGVYGLTKGQASPTLHRGEKTKSLPKPNIMDAVNPLAVALAAGYTFVARGYAYDVMHLKELIKKAILHKGSALVDILQPCPTYNDINTKEWYDKRVYKLDNVPGWDPVVRKEEEAQKKFEQAIMKSYEWGEKIPIGIFYQNELVPTFEDRLTSNIPNYREYYPAKQQIEINGISTTKIDELIKAKRI
notes: recombinant in E. coli C43(DE3), genes from S. tokodaii genomic DNA in pOFORAB (pET-17b based), untagged; (ab)2 heterotetramer with TPP, Mg2+, [4Fe-4S]
B1 gave a Km (purified protein [1]) of 1600 ± 300 µM, a Vmax (purified protein [1]) of 7 µmol/min/mg and a Km (purified protein [2]) of 15000 ± 2000 µM. The Vmax (purified protein [2]) was 1.4 µmol/min/mg.

B2: StOFOR1 (Sulfurisphaera tokodaii str. 7) (protein)
chain 1: MRLSWVIGGAQGTGIDTAANIFGNAVASAGYYIYGNREYYSNIKGRHSYFSLTISDKRVRSNTQKIDILVSFDAETVFQHFYDVKDILIYNKAVETTKIDAVQSMEPELAERIKDFLTKQGYETTVKGALEYASKNNVTLIPVNYDEIAKKVADEMKVPLSVTERVKNIVGITISYKLLGLDVNYLIEAINSTFKQDLYRKMNELAVKDSYDIVESRYNLKPSSKERRRFWLDGNTAVAIGKIYGGVRFQSYYPITPASDESVYIEAHQDVLMEDPITGDKKKGTIVVVQAEDELAAINMAIGAALTGVRAATATSGPGFSLMVEGLGWAGMNEVPVVITYYIRGGPSTGLPTRTAQSDLIFPIFAGHGEFPKIVLASGDHAEAFKDAIWALNLAEKYQTPVIHLVEKTLANSYSTIPYEELELDKLKAERGKIVESGDISYKRFKFTEDGISPRAFLGKATMYYTGDEHNEEGHISEDVVNRTMMYEKRMKKLEVADKEIPEESRVKIYGDLNSRNLIITWGSPTGVLRDILEESNFDFTLLQIRMFSPFPKNLVSKLMEGRDKIITVEGNYLAQTSLLVKMYTGKDVTNSILKWNGRPFLRDELEEALIKVIKDGEKRVVLNGGI
chain 2: MAAFKPQWNDWCPGCGNFGILNAEQQAIVELGVDTKNVVVVSGIGCSGKIPHFFRTPISGVHTLHGRAIAFATGIKLSNPDLVVIVNGGDGDLLGIGAGHFVAAGRRNVDMVVILHDNGVYGLTKGQASPTLKRGEKPKSLPRPNINDAVNPIALAISSGYTFVARGYAYDVKHLKELIKSAIKHKGLALIDVLQPCPTYNDINTKEWYDKRIYKLDTLPDWDPVVKKPEEVNEKIKRAIDKSLEWGDRIPIGIFYQNELVPSYEERIKANSPAYLDYTPAKQLIEKEGKLTTIIDPLLKEREVD
notes: recombinant in E. coli C43(DE3), pET-17b-based pOFORAB, untagged; 70 kDa alpha and 34 kDa beta subunits; (ab)2 heterotetramer with TPP, Mg2+, [4Fe-4S]
Protein B2 has a Km (purified protein [1]) of 320 ± 80 µM, a Vmax (purified protein [1]) of 7.5 µmol/min/mg and a Km (purified protein [2]) of 2100 ± 300 µM. The Vmax (purified protein [2]) was 2.7 µmol/min/mg.

B3: StOFOR1 (Sulfurisphaera tokodaii str. 7; Q96Y66:T349L) (protein)
chain 1: MRLSWVIGGAQGTGIDTAANIFGNAVASAGYYIYGNREYYSNIKGRHSYFSLTISDKRVRSNTQKIDILVSFDAETVFQHFYDVKDILIYNKAVETTKIDAVQSMEPELAERIKDFLTKQGYETTVKGALEYASKNNVTLIPVNYDEIAKKVADEMKVPLSVTERVKNIVGITISYKLLGLDVNYLIEAINSTFKQDLYRKMNELAVKDSYDIVESRYNLKPSSKERRRFWLDGNTAVAIGKIYGGVRFQSYYPITPASDESVYIEAHQDVLMEDPITGDKKKGTIVVVQAEDELAAINMAIGAALTGVRAATATSGPGFSLMVEGLGWAGMNEVPVVITYYIRGGPSLGLPTRTAQSDLIFPIFAGHGEFPKIVLASGDHAEAFKDAIWALNLAEKYQTPVIHLVEKTLANSYSTIPYEELELDKLKAERGKIVESGDISYKRFKFTEDGISPRAFLGKATMYYTGDEHNEEGHISEDVVNRTMMYEKRMKKLEVADKEIPEESRVKIYGDLNSRNLIITWGSPTGVLRDILEESNFDFTLLQIRMFSPFPKNLVSKLMEGRDKIITVEGNYLAQTSLLVKMYTGKDVTNSILKWNGRPFLRDELEEALIKVIKDGEKRVVLNGGI
chain 2: MAAFKPQWNDWCPGCGNFGILNAEQQAIVELGVDTKNVVVVSGIGCSGKIPHFFRTPISGVHTLHGRAIAFATGIKLSNPDLVVIVNGGDGDLLGIGAGHFVAAGRRNVDMVVILHDNGVYGLTKGQASPTLKRGEKPKSLPRPNINDAVNPIALAISSGYTFVARGYAYDVKHLKELIKSAIKHKGLALIDVLQPCPTYNDINTKEWYDKRIYKLDTLPDWDPVVKKPEEVNEKIKRAIDKSLEWGDRIPIGIFYQNELVPSYEERIKANSPAYLDYTPAKQLIEKEGKLTTIIDPLLKEREVD
notes: as for B2
Work on B3 yielded a Km (purified protein [1]) of 510 ± 110 µM, a Vmax (purified protein [1]) of 3.2 µmol/min/mg and a Km (purified protein [2]) of 2300 ± 300 µM. It also gave a Vmax (purified protein [2]) of 2 µmol/min/mg.

B4: StOFOR1 (Sulfurisphaera tokodaii str. 7; Q96Y68:K49I) (protein)
chain 1: MRLSWVIGGAQGTGIDTAANIFGNAVASAGYYIYGNREYYSNIKGRHSYFSLTISDKRVRSNTQKIDILVSFDAETVFQHFYDVKDILIYNKAVETTKIDAVQSMEPELAERIKDFLTKQGYETTVKGALEYASKNNVTLIPVNYDEIAKKVADEMKVPLSVTERVKNIVGITISYKLLGLDVNYLIEAINSTFKQDLYRKMNELAVKDSYDIVESRYNLKPSSKERRRFWLDGNTAVAIGKIYGGVRFQSYYPITPASDESVYIEAHQDVLMEDPITGDKKKGTIVVVQAEDELAAINMAIGAALTGVRAATATSGPGFSLMVEGLGWAGMNEVPVVITYYIRGGPSTGLPTRTAQSDLIFPIFAGHGEFPKIVLASGDHAEAFKDAIWALNLAEKYQTPVIHLVEKTLANSYSTIPYEELELDKLKAERGKIVESGDISYKRFKFTEDGISPRAFLGKATMYYTGDEHNEEGHISEDVVNRTMMYEKRMKKLEVADKEIPEESRVKIYGDLNSRNLIITWGSPTGVLRDILEESNFDFTLLQIRMFSPFPKNLVSKLMEGRDKIITVEGNYLAQTSLLVKMYTGKDVTNSILKWNGRPFLRDELEEALIKVIKDGEKRVVLNGGI
chain 2: MAAFKPQWNDWCPGCGNFGILNAEQQAIVELGVDTKNVVVVSGIGCSGIIPHFFRTPISGVHTLHGRAIAFATGIKLSNPDLVVIVNGGDGDLLGIGAGHFVAAGRRNVDMVVILHDNGVYGLTKGQASPTLKRGEKPKSLPRPNINDAVNPIALAISSGYTFVARGYAYDVKHLKELIKSAIKHKGLALIDVLQPCPTYNDINTKEWYDKRIYKLDTLPDWDPVVKKPEEVNEKIKRAIDKSLEWGDRIPIGIFYQNELVPSYEERIKANSPAYLDYTPAKQLIEKEGKLTTIIDPLLKEREVD
notes: as for B2
B4 was tested, and the Km (purified protein [1]) was 910 ± 120 µM and the Vmax (purified protein [1]) was 2.1 µmol/min/mg.

B5: StOFOR1 (Sulfurisphaera tokodaii str. 7; Q96Y66:S41A) (protein)
chain 1: MRLSWVIGGAQGTGIDTAANIFGNAVASAGYYIYGNREYYANIKGRHSYFSLTISDKRVRSNTQKIDILVSFDAETVFQHFYDVKDILIYNKAVETTKIDAVQSMEPELAERIKDFLTKQGYETTVKGALEYASKNNVTLIPVNYDEIAKKVADEMKVPLSVTERVKNIVGITISYKLLGLDVNYLIEAINSTFKQDLYRKMNELAVKDSYDIVESRYNLKPSSKERRRFWLDGNTAVAIGKIYGGVRFQSYYPITPASDESVYIEAHQDVLMEDPITGDKKKGTIVVVQAEDELAAINMAIGAALTGVRAATATSGPGFSLMVEGLGWAGMNEVPVVITYYIRGGPSTGLPTRTAQSDLIFPIFAGHGEFPKIVLASGDHAEAFKDAIWALNLAEKYQTPVIHLVEKTLANSYSTIPYEELELDKLKAERGKIVESGDISYKRFKFTEDGISPRAFLGKATMYYTGDEHNEEGHISEDVVNRTMMYEKRMKKLEVADKEIPEESRVKIYGDLNSRNLIITWGSPTGVLRDILEESNFDFTLLQIRMFSPFPKNLVSKLMEGRDKIITVEGNYLAQTSLLVKMYTGKDVTNSILKWNGRPFLRDELEEALIKVIKDGEKRVVLNGGI
chain 2: MAAFKPQWNDWCPGCGNFGILNAEQQAIVELGVDTKNVVVVSGIGCSGKIPHFFRTPISGVHTLHGRAIAFATGIKLSNPDLVVIVNGGDGDLLGIGAGHFVAAGRRNVDMVVILHDNGVYGLTKGQASPTLKRGEKPKSLPRPNINDAVNPIALAISSGYTFVARGYAYDVKHLKELIKSAIKHKGLALIDVLQPCPTYNDINTKEWYDKRIYKLDTLPDWDPVVKKPEEVNEKIKRAIDKSLEWGDRIPIGIFYQNELVPSYEERIKANSPAYLDYTPAKQLIEKEGKLTTIIDPLLKEREVD
notes: as for B2
With B5 the Km (purified protein [1]) was 490 ± 90 µM, the Vmax (purified protein [1]) was 2.2 µmol/min/mg and the Km (purified protein [2]) was 3200 ± 400 µM. For the same protein, the Vmax (purified protein [2]) was 1.1 µmol/min/mg.
